Experiments:
[1] = molecular target: NRSF (endogenous, JTC-19 rat lung fibroblasts) (rat) (UniProt O54963); assay: cell-based or functional assay
MYC-tagged NRSF protein = assay: co-immunoprecipitation (anti-KT3) of HEK cell protein incubated with 0-1000 nM NADH, anti-MYC Western blot; the varied concentration is that of NADH, not of a protein
Sequence of MYC-tagged NRSF protein (Q13127 whole entry): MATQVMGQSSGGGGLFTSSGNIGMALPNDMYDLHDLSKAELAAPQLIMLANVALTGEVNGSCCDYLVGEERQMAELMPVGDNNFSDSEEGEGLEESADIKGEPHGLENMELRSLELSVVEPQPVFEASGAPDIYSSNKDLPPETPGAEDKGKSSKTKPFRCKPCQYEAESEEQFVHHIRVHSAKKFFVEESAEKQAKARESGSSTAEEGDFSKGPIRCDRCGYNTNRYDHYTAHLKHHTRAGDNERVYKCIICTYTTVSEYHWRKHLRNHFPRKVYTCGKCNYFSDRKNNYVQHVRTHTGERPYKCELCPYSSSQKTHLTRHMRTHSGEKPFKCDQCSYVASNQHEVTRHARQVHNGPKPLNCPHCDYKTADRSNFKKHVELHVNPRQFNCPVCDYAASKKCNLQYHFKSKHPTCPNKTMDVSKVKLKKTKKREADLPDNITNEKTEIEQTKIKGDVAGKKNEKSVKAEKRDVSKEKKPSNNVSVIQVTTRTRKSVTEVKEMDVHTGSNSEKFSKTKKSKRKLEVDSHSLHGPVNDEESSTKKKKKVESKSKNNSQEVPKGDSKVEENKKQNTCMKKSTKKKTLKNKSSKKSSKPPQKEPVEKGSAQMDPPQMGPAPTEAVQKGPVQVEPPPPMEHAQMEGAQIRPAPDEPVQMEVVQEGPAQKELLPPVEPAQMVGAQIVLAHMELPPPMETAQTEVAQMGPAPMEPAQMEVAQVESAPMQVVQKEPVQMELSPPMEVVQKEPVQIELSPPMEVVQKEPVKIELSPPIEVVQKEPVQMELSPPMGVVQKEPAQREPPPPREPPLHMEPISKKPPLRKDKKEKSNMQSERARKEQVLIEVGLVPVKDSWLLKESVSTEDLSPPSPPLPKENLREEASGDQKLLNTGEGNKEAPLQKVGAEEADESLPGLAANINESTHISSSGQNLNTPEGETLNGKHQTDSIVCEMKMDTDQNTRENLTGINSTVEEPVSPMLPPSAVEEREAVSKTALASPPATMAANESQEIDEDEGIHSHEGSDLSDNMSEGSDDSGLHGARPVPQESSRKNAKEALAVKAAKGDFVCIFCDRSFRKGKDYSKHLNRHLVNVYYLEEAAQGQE

Sequence of KT3-tagged CtBP2 (P56546 whole entry): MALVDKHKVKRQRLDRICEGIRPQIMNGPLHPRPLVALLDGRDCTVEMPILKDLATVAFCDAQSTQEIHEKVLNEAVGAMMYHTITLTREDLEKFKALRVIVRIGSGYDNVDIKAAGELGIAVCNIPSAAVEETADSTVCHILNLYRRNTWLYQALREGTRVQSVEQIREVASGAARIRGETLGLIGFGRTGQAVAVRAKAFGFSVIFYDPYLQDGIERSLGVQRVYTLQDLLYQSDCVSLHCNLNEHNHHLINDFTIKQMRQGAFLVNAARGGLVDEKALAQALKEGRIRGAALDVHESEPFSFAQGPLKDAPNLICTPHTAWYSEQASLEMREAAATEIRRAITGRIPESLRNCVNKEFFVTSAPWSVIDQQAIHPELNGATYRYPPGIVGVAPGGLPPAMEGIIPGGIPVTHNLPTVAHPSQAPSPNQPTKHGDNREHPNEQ
Sequence of NRSF (endogenous, JTC-19 rat lung fibroblasts) (rat) (O54963 whole entry): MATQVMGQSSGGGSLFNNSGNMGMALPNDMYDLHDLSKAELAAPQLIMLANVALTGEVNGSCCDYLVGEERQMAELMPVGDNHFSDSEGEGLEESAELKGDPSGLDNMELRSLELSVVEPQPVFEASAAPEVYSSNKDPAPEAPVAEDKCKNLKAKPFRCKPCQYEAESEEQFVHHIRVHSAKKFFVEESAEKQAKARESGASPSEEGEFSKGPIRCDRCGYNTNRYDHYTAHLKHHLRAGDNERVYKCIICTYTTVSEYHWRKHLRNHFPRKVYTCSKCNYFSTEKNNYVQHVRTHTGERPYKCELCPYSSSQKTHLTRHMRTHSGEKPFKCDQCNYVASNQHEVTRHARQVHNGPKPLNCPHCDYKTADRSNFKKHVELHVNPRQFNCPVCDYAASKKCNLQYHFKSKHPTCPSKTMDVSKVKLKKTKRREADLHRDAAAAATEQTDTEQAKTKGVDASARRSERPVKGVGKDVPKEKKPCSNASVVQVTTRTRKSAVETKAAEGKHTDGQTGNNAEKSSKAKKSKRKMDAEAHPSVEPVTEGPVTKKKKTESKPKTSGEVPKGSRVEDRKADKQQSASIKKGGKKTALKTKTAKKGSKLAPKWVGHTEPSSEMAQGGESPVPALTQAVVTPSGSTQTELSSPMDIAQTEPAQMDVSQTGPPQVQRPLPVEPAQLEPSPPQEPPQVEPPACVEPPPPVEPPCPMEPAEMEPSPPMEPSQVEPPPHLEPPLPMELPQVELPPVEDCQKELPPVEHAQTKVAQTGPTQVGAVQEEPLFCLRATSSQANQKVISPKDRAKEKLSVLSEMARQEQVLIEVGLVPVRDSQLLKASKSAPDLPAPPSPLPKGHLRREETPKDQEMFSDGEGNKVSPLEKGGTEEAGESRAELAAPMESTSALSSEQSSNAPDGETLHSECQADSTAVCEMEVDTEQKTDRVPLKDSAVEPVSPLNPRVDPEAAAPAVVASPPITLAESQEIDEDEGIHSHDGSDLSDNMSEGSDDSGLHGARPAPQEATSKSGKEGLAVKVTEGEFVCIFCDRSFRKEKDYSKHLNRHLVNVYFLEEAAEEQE

Work on “CtBP (endogenous, JTC-19 rat lung fibroblasts) (from UniProt F7FG31 1-441)” yielded an amount of CtBP recruited to CHRM4, the NRSF target gene (ChIP, JTC-19 cells grown with 2-DG or glucose) [1] of 5 fold.

For KT3-tagged CtBP2, the NADH concentration at half maximal binding of CtBP to NRSF (MYC-tagged NRSF protein) was 70 nM.

Reference: US20060205649A1
